The target of experiment [1] is MHCII (DR). In words: competition.
In experiment [2] the target is MHCII (DR). Put plainly: competition ELISA. In general terms: An ELISA detects its analyte on a solid surface through an enzyme-linked reagent.
Experiment [3] has as its target HLA-DRB1*01:01 MHCII molecule (human). Put plainly: competition ELISA; 50 nM huCLIP-bio.
The target is the same in experiment [4]. In words: competition ELISA; 50 nM, pp65 reference.
For experiment [5] the target is unchanged. In words: competition ELISA; 25 nM huCLIP-bio.
Experiment [6] has the same target. In words: competition ELISA; 25 nM, pp65 reference.

A word on the IC50: it is the concentration needed to halve the response being measured. In the experiment with MHCII (DR) [1], LASV RNAP gave an IC50 of 517 nM. The substance LCMV NP (201-215) yielded an IC50 with MHCII (DR) [1] of 1220 nM. Same read-out and setting: the figure for LCMV RNAP is 287 nM. Turning to MOG (35-55), the IC50 in the experiment with MHCII (DR) [2] is 2050 nM. This counts as single-digit micromolar. Still for that read-out and setting: the value for OVA (323-339) was 10700 nM; that for VETF (275-289) was 983 nM.

The substance VV HP (23-37) came in with an IC50 with MHCII (DR) [2] of 2020 nM. Regarding mCLIP, the IC50 with MHCII (DR) [2] is 268 nM; in experiment [3], 429 nM; in experiment [4], 7.83 nM; in experiment [5], 162 nM; in experiment [6], 3.47 nM.

(Values after US20240255522A1.)
